B1: C22orf15 (parent)
chain: ITQSWQVSVRVQPRGRAHLLPNPY
B2: TMEM40 (parent)
chain: YGETDFHKQDGKAGLFSQEQYERN

Variants of: B1
Experiment: protein stability index of a GFP-peptide fusion (GPS, HEK-293T) (PSI 1-6); higher = more stable
Settings: c terminus: a fixed tail appended
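Also: lentivirally expressed fusions sorted by FACS into six bins by GFP to DsRed ratio, PSI derived from sequencing read proportions per bin multiplied by bin number.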

Protein stability index: each site, then its substitutions
R10: W 2.02, E 1.32, Q 2.09, A 1.83, S 1.98, Y 2.12, F 2.62, T 1.98, C 1, N 2.63, K 2.41, L 2.47, G 2.89, H 1.5, P 1.83, I 3.79, D 2.05, M 2.9
N22: R 2.33, P 1.17, K 2.17, F 1.49, Q 2.43, H 1.75, T 1.89, E 1.59, D 1.62, L 3.15, Y 2.09, I 2.39, M 1.88, V 1.75, S 4.3, A 2.85
V9: H 2.88, L 2.7, I 2.64, K 1.91, S 1.91, A 2.19, T 1.55, N 2.45, F 1.74, M 1.34, Q 2.44, E 2.26, P 1.81, D 2.02
H18: K 1.74, Q 2.99, M 1.83, Y 1.95, N 2.99, D 2.29, T 2.13, S 1.43, C 1.49, P 2.7, L 3.13, E 1.36, A 2.9, V 2.19, I 1.29
P13: M 1.91, G 1.64, N 1.74, V 3.02, T 1.94, H 2.27, D 1.86, I 2.67, K 1.65, S 2.67, R 1.16, Y 2.01, L 2.69, Q 2.21
S8: H 2.28, F 2.21, P 1.71, C 1.12, N 1.46, T 3.34, D 2.65, G 2.39, E 1.54, M 2.55, R 2.73, Y 1.8
Q12: T 1, S 2.13, E 2.61, K 1.79, W 2.49, F 3.49, N 2.98, A 1.16, Y 2.25, P 1.72, M 3.2, G 3.64, H 2.27, D 2.27, C 1.77
G15: Q 1.48, T 1.51, D 1.94, K 2.31, C 1.97, W 4.12, V 2.31, A 4.31, Y 1.77, E 2.02, F 1.97, R 1.73, H 2.03, N 3.33, P 3.81
R16: P 2.07, F 3.25, L 1.69, S 2.21, C 4.64, D 2.88, W 2.89, N 1.4, Q 1, H 1.89, Y 3.74, I 2.26, T 2.14, V 1.24, E 1.24
P23: K 2.09, H 1.27, F 3.34, G 1.32, I 2.08, D 1.42, E 1.51, C 1.6, A 1.34, R 1.87, Q 1.93, N 3.05, S 1.92, W 1.11, L 1.46
V11: E 2.65, H 2.49, P 1.8, G 2.43, R 1.86, M 3.05, Y 1.68, S 1.95, A 2.07, N 2.51, D 2.45, K 3.28, Q 1.49, F 1.69, I 4.95, T 1.87
L19: M 3.54, G 2.23, K 2.33, I 2.81, H 1.92, Q 1.93, P 1.78, C 2.07, R 2.43, D 1.82, A 2.42, V 1.6, E 3.62, T 2.62, S 2.1, N 1.49
A17: L 2.42, H 3.03, P 1.81, Q 1.68, G 3.81, S 2.46, C 3.18, Y 3.21, F 1.1, N 1.7, M 2.57, T 2.28, V 2.58, R 1.66, W 2.46, I 2.96, D 1.76, K 1.34
R14: P 1.68, Y 1.85, T 1.05, A 3.37, Q 2.15, H 2, D 1.87, F 1.78, I 1.54, L 2.15, K 2.25, N 1.98, E 2.73
L20: R 1.7, H 1.51, N 2.16, Y 3.07, I 2.29, K 1.01, T 3.22, P 1.17, S 1.03, C 1.97, V 4.25, A 1.91
P21: Y 2.38, D 1.56, A 1.29, N 1.68, H 2.78, V 1.94, R 1.79, E 1.6, K 1.64, G 1.76, S 1.7, I 1.91, Q 1.52, T 2.87, C 3.18, L 2.04
Y24: R 2.1, T 2.34, N 1.54, D 1.75, K 2.19, C 1.71, W 2.93, P 1.15, A 1.39, F 2.47, Q 1.47, H 1.07, I 2.29, S 1.34

Variants of: B2
Experiment: as above
Settings: c terminus: a fixed tail appended

Protein stability index of substitutions, site by site:
G2: I 2.65, K 4.68, Q 3.67, N 4.78, W 3.62, C 3.42, F 4.61, E 5.38, V 1.6, P 4.95, M 3.92, Y 4.57, S 4.56, L 4.46, H 3.47, T 4.11, D 4.95, A 3.49, R 4.66
T4: L 3.69, N 4.59, M 3.67, S 4.06, W 3.28, C 4.34, D 4.66, F 4.43, I 4, K 3.59, Y 4.04, A 3.78, H 4.13, P 3.62, G 4.61, V 4.14, E 4.83, Q 4.14, R 3.33
Y1: A 4.89, M 4.38, T 5.14, P 5.22, C 4.55, G 4.5, H 4.38, R 5.01, Q 5.3, S 5.24, F 4.88, E 5.36, D 4.92, L 5.45, K 5.01, I 4.58, N 4.77, W 4.37
D5: G 2.37, C 2.36, A 2.92, F 1.49, E 4.37
E3: G 2.36, C 3.12, P 3.88, L 4.08, Y 3.79, H 3.23, W 3.49, N 2.46, F 3.57, D 3.09, K 3.55, T 3.61, R 3.85, M 3.75, Q 3.71, A 3.92, I 3.9, S 1.98, V 4.38
